From patent US7105166 come the findings set out here.

Positions count from the first letter of the chain named.

The target in experiment [1] is B7 antigen (B7-1, CD80) expressed on cells (human) (UniProt P33681). As to the kind of experiment: enzyme immunoassay on fixed B7-1+ CHO cells.
Experiment [2] shares this target. As to the kind of experiment: B7-1+ CHO cell enzyme immunoassay; binding activity relative to CTLA4Ig, from the concentrations giving the same A450.

Chain of B7 antigen (B7-1, CD80) expressed on cells (human) (P33681 35-288): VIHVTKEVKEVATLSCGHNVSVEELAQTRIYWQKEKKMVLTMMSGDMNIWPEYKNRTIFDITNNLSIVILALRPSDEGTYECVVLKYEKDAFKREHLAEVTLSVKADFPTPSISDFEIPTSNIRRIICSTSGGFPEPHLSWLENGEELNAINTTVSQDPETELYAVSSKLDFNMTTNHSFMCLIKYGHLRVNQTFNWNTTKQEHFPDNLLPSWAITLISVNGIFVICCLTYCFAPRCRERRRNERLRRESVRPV

B1: CTLA4/CD28Ig hybrid fusion protein HS7 (Fc fusion, not shown: a dimerising Fc or GST)
chain: NKILVKQSPMLVAYDNAYNLSCKYASPGKATEFRASLHKGLDSAVEVCVVYGNYSQQLQVYSKTGFNCDGKLGNESVTFYLQNLYVNQTDIYFCKIELMYPPPYYLGIGNGTQIYVIDPEPCPDSD
Regarding B1, the % binding activity relative to CTLA4Ig in experiment [1] came out at 44%. Besides, the % B7 binding activity in experiment [2] is 44%.

B2: CTLA4/CD28Ig hybrid fusion protein HS4-B (Fc fusion, not shown: a dimerising Fc or GST)
chain: NKILVKQSPMLVAYDNAYNLSCKYSYNLFSREFRASLHKGLDSAVEVCVVYGNYSQQLQVYSKTGFNCDGKLGNESVTFYLQNLYVNQTDIYFCKIEVMYPPPYLDNEKSNGTIIYVIDPEPCPDSD
B2 yielded a % B7 binding activity in experiment [2] of 5%.

B3: CTLA4/CD28Ig hybrid fusion protein HS9 (Fc fusion, not shown: a dimerising Fc or GST)
chain: B2 chain with S25A, Y26S, N27P, L28G, F29K, S30A, R31T
In experiment [2], B3 had a % B7 binding activity of 5%.

B4: CTLA4/CD28Ig hybrid fusion protein HS8 (Fc fusion, not shown: a dimerising Fc or GST)
chain: NKILVKQSPMLVAYDNAYNLSCKYASPGKATEFRASLHKGLDSAVEVCVVYGNYSQQLQVYSKTGFNCDGKLGNESVTFYLQNLYVNQTDIYFCKIELMYPPPYYLGIGNGTQIHVKGKHLCPS
Molecule B4 returned a % of wild type binding in experiment [1] of 60%. This molecule came in with a % B7 binding activity in experiment [2] of 56%.
